# B1: Arabidopsis thaliana S-nitrosoglutathione reductase (GSNOR), recombinant His6-GSNOR, reduced (enzyme, UniProt Q96533 1-379, looked up)
# chain: MATQGQVITCKAAVAYEPNKPLVIEDVQVAPPQAGEVRIKILYTALCHTDAYTWSGKDPEGLFPCILGHEAAGIVESVGEGVTEVQAGDHVIPCYQAECRECKFCKSGKTNLCGKVRSATGVGIMMNDRKSRFSVNGKPIYHFMGTSTFSQYTVVHDVSVAKIDPTAPLDKVCLLGCGVPTGLGAVWNTAKVEPGSNVAIFGLGTVGLAVAEGAKTAGASRIIGIDIDSKKYETAKKFGVNEFVNPKDHDKPIQEVIVDLTDGGVDYSFECIGNVSVMRAALECCHKGWGTSVIVGVAASGQEISTRPFQLVTGRVWKGTAFGGFKSRTQVPWLVEKYMNKEIKVDEYITHNLTLGEINKAFDLLHEGTCLRCVLDTSK
# notes: S-nitrosoglutathione reductase (GSNOR; glutathione-dependent formaldehyde dehydrogenase, class III alcohol dehydrogenase), Arabidopsis thaliana, At5g43940; Expressed from pDEST17 (Gateway); Run in buffer with 10 mM DTT; also called AtGSNOR; GSNO-reductase; source: E. coli BL21 DE3 pLysS, purified (Ni-NTA under reducing condition, followed by Äkta purification); not shown: His6, N-terminal, kept
# B2: Arabidopsis thaliana S-nitrosoglutathione reductase (GSNOR), recombinant His6-GSNOR, oxidized with 1 mM H2O2 (enzyme, UniProt Q96533 1-379, looked up)
# chain: B1 chain
# modifications: oxidized by 1 mM H2O2 (oxidative modifications of cysteine residues; which residues at this concentration is not stated)
# notes: S-nitrosoglutathione reductase (GSNOR; glutathione-dependent formaldehyde dehydrogenase, class III alcohol dehydrogenase), Arabidopsis thaliana, At5g43940; Same construct as m1, treated with H2O2 (200 ug GSNOR, 1 mM H2O2) and run without DTT; Mass spectrometry at 0.5 and 5 mM H2O2 found reversible and sulfinic or sulfonic modifications on most detected cysteines, among them Cys47 and Cys177; also …
# Molecular target: the molecule itself
# Assay: SEC-MALS; size exclusion chromatography (Superdex 200 10/300 GL, 4°C) with static light scattering (right-angle, Viscotek TDA 305, 30°C); 50 mM Tris-HCl pH 8.0, 200 mM NaCl, with 10 mM DTT (reduced sample) or without (sample oxidized by 1 mM H2O2); approximately 1.5 mg/ml, 100 ul applied
row,Protein,stoichiometry N
1,B1,2
2,B2,2

# Source: publication PMC5102900, “ROS-Mediated Inhibition of S-nitrosoglutathione Reductase Contributes to the Activation of Anti-oxidative Mechanisms” (Frontiers in Plant Science, 2016)
